Assay results published in patent US20090005253A1 (AVENTIS PHARMA S A, published 2009).

B1: activation domain (AD) of GAL4p expressed alone from pTAL20 (other, Saccharomyces cerevisiae, UniProt P04386 768-881, looked up)
chain: ANFNQSGNIADSSLSFTFTNSSNGPNLITTQTNSQALSQPIASSNVHDNFMNNEITASKIDDGNNSKPLSPGWTDQTAYNAFGITTGMFNTTTMDDVYNYLFDDEDTPPNPKKE
notes: Negative control partner
B2: fusion protein AD-Fe65 (GAL4 activation domain fused to amino acids 152 to 708 of Fe65) (other)
chain: MDKAELIPEPPKKKRKVELGTAANFNQSGNIADSSLSFTFTNSSNGPNLITTQTNSQALSQPIASSNVHDNFMNNEITASKIDDGNNSKPLSPGWTDQTAYNAFGITTGMFNTTTMDDVYNYLFDDEDTPPNPKKEIEFKAAGEAEEEEEDDDDEEEEEDLSSPPGLPEPLESVEAPPRPQALTDGPREHSKSASLLFGMRNSAASDEDSSWATLSQGSPSYGSPEDTDSFWNPNAFETDSDLPAGWMRVQDTSGTYYWHIPTGTTQWEPPGRASPSQGSSPQEESQLTWTGFAHGEGFEDGEFWKDEPSDEAPMELGLKEPEEGTLTFPAQSLSPEPLPQEEEKLPPRNTNPGIKCFAVRSLGWVEMTEEELAPGRSSVAVNNCIRQLSYHKNNLHDPMSGGWGEGKDLLLQLEDETLKLVEPQSQALLHAQPIISIRVWGVGRDSGRDFAYVARDKLTQMLKCHVFRCEAPAKNIATSLHEICSKIMAERRNARCLVNGLSLDHSKLVDVPFQVEFPAPKNELVQKFQVYYLGNVPVAKPVGVDVINGALESVLSSSSREQWTPSHVSVAPATLTILHQQTEAVLGECRVRFLSFLAVGRDVHTFAFIMAAGPASFCCHMFWCEPNAASLSEAVQAACMLRYQKCLDARSQASTSCLPAPPAESVARRVGWTVRRGVQSLWGSLKPKRLGAHTP
notes: also called pRB34

Assays:
[1] = biological target: T1, fusion protein DBD-mdm2 (GAL4 DBD fused to the entire Mdm2 human protein) (Saccharomyces cerevisiae; human, UniProt P04386 1-147; Q00987 1-491, limits assumed); assay: yeast two-hybrid control (pTAL20+pDBT-mdm2), URA3 reporter in strain Y187
T1 construct: also called pDBT-mdm2
Method: (§1) The activity of the constructs is first verified (FIGS. 6A and 6F). […] Two clones of each of these transformants are cultured on minimum medium with and without uracil ((FIGS. 6A and 6F).

[2] = biological target: T2, DNA-binding domain (DBD) of GAL4p expressed alone from pDBT (Saccharomyces cerevisiae, UniProt P04386 1-147, limits assumed); assay: reverse two-hybrid UI strain yRB49; growth not affected on medium with 1 mM 3-AT
T2 construct: Negative control partner

[3] = biological target: T2, DNA-binding domain (DBD) of GAL4p …; assay: yeast two-hybrid control (pRB34+pDBT), URA3 reporter in strain Y187
Method: as §1
Firstly, the activity of the constructs was verified. […] Two clones cotransformed by each of these pairs of plasmids are selected. Their capacity to grow on minimum medium with and without uracil is studied.

| Binder | binding result [1] | binding result [2] | binding result [3] |
| --- | --- | --- | --- |
| B1 | no binding | no binding | – |
| B2 | – | – | no binding |
